Assay results reported in patent publication US20120237528A1 (Janssen / Centocor, published 2012).

T1: Cynomolgous monkey (cyno) TF-ECD with His Tag (cynomolgus monkey, UniProt P13726 33-251 (human entry))
T1 construct: also called cyno antigen
T1 chain: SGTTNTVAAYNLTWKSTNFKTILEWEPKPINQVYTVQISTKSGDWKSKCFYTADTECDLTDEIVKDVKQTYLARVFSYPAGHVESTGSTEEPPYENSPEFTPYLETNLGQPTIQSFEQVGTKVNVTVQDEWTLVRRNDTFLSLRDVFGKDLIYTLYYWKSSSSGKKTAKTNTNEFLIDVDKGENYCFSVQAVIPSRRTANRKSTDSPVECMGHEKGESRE


Columns and labels:
[1] = molecular target: T1, Cynomolgous monkey (cyno) TF-ECD with …; assay: Biacore
[2] = molecular target: Innovin, lyophilized recombinant human tissue factor combined with phospholipids (human, UniProt P13726 33-295, limits assumed); assay: cell-based or functional assay
[3] = molecular target: endogenous human tissue factor on MDA-MB-231 breast cancer cells (human, UniProt P13726 33-295); assay: cell-based or functional assay
[4] = molecular target: T2, recombinant extracellular domain (ECD) of human TF, amino acid 1-219 of the mature chain, C-terminal His6-tag (human, UniProt P13726 33-251); assay: TF-ECD binding ELISA, chemiluminescent
T2 construct: expressed in a mammalian system; used for ELISA and Biacore; biotinylated by NHS-ester for the Fab ELISA; also called His6-TF-ECD1-219; HumanTF1-219

[5] = molecular target: T1, Cynomolgous monkey (cyno) TF-ECD with …; assay: TF-ECD binding ELISA, chemiluminescent
[6] = molecular target: T2, recombinant extracellular domain (ECD) …; assay: direct ELISA, 50 ng/ml
[7] = molecular target: T2, recombinant extracellular domain (ECD) …; assay: Biacore
[8] = molecular target: T1, Cynomolgous monkey (cyno) TF-ECD with …; assay: direct ELISA of supernatants, chemiluminescent
Protocol: A solution Phase direct TF binding ELISA using chemiluminescent detection was used to rank the top binders from human framework adaptation library. The 96 well black maxisorp plates were coated with 100 uL of 4 ug/ml Goat anti human IgG FC diluted in carbonate-bicarbonate buffer, pH 9.4 at 4° C. overnight and then washed thrice with wash buffer (PBS with 0.05% Tween-20 solution) and blocked with […] 1% BSA/10 mM PBS solution for 1 hour followed by a washing as before. Samples or standards were diluted to 50 ng/ml in Assay Buffer (1% BSA in PBS+05% Tween) and 100 ul was added to the assay plate at room temperature for 1 hour with shaking. The plates were washed thrice and 100 ul per well of human or cynomologus TF-ECD with His Tag was added at 100 ng/ml diluted in Assay Buffer and incubate for 2 hours at room temperature. After washing, 100 ul per well of Qiagen peroxidase conjugated penta-his at 1:2000 dilution in assay buffer was added and incubated 1 hour at room temperature with shaking. The BM ChemiLum Substrate (BM Chemilum, POD, Roche) was made freshly at 1:100 dilution into Buffer and 100 ul added to the plates after a final wash. After 10 minutes the plates are read on Perkin Elmer Envision Reader, BM ChemiLum program.
For primary screening of library variants in crude supernatants, samples or controls were normalized to 50 ng/ml in spent FreeStyle 293 HEK media (Gibco) and assayed at single concentration determinations. In the present assay, the concentration of antibody was 5 ng (0.1 ml used) and the TF ECD and the antigen was His6-TF-ECD₁₋₂₁₉ used at a final concentration of 10 ng/well.

| T½ Max (seconds), coagulation of human plasma [2] [s] | % IL-8 Inhibition [3] [%] | binding result [6] | Kd [7] [nM] | koff [7] [s⁻¹] | kon [7] [M⁻¹ s⁻¹] | Binder | also measured |
| --- | --- | --- | --- | --- | --- | --- | --- |
| 196 | 90.7 |  |  |  |  | M10 (antibody, V domains shown, complete MAb; FR4 is its own entry; also called H15/L3) VH: EVQLVQSGAEVKKPGESLRISCKGSGYTFITYWIEWVRQMPGKGLEWMGDILPGSGSTNYNENFKGHVTISADKSISTAYLQWSSLKASDTAMYYCARSGYYGNSGFAYWGQGTLVTVSS VL: DIVMTQTPLSLPVTPGEPASISCKSSQSLLSSGNQKNYLTWYLQKPGQSPQLLIYWASTRESGVPDRFSGSGSGTDFTLKISRVEAEDVGVYYCQNDYTYPLTFGQGTKLEIK | Kd [1]: 1.57 nM; EC50 [4]: 0.0105 µg/mL; EC50 [5]: 0.0196 µg/mL |
|  |  | binds |  |  |  | M77 (antibody, V domains shown, complete MAb; FR4 is its own entry; also called H24/L7) VH: EVQLVQSGAEVKKPGATVKISCKVSGYTFITYWIEWVQQAPGKGLEWMGDILPGSGSTNYAEKFQGRVTITADTSTDTAYMELSSLRSEDTAVYYCATSGYYGNSGFAYWGQGTLVTVSS VL: DIVMTQTPLSSPVTLGQPASISCKSSQSLLSSGNQKNYLTWLQQRPGQPPRLLIYWASTRESGVPDRFSGSGAGTDFTLKISRVEAEDVGVYYCQNDYTYPLTFGQGTKLEIK |  |
|  |  | binds |  |  |  | M14 (antibody, V domains shown, complete MAb; FR4 is its own entry; also called H15/L7) VH: EVQLVQSGAEVKKPGESLRISCKGSGYTFITYWIEWVRQMPGKGLEWMGDILPGSGSTNYNENFKGHVTISADKSISTAYLQWSSLKASDTAMYYCARSGYYGNSGFAYWGQGTLVTVSS VL: DIVMTQTPLSSPVTLGQPASISCKSSQSLLSSGNQKNYLTWLQQRPGQPPRLLIYWASTRESGVPDRFSGSGAGTDFTLKISRVEAEDVGVYYCQNDYTYPLTFGQGTKLEIK |  |
|  |  | binds |  |  |  | M74 (antibody, V domains shown, complete MAb; FR4 is its own entry; also called H24/L4) VH: EVQLVQSGAEVKKPGATVKISCKVSGYTFITYWIEWVQQAPGKGLEWMGDILPGSGSTNYAEKFQGRVTITADTSTDTAYMELSSLRSEDTAVYYCATSGYYGNSGFAYWGQGTLVTVSS VL: DIVMTQSPLSLPVTPGEPASISCKSSQSLLSSGNQKNYLTWYLQKPGQSPQLLIYWASTRESGVPDRFSGSGSGTDFTLKISRVEAEDVGVYYCQNDYTYPLTFGQGTKLEIK |  |
|  |  | binds |  |  |  | M75 (antibody, V domains shown, complete MAb; FR4 is its own entry; also called H24/L5) VH: EVQLVQSGAEVKKPGATVKISCKVSGYTFITYWIEWVQQAPGKGLEWMGDILPGSGSTNYAEKFQGRVTITADTSTDTAYMELSSLRSEDTAVYYCATSGYYGNSGFAYWGQGTLVTVSS VL: DIVMTQTPLSLSVTPGQPASISCKSSQSLLSSGNQKNYLTWYLQKPGQPPQLLIYWASTRESGVPDRFSGSGSGTDFTLKISRVEAEDVGVYYCQNDYTYPLTFGQGTKLEIK |  |
|  |  | binds |  |  |  | M73 (antibody, V domains shown, complete MAb; FR4 is its own entry; also called H24/L3) VH: EVQLVQSGAEVKKPGATVKISCKVSGYTFITYWIEWVQQAPGKGLEWMGDILPGSGSTNYAEKFQGRVTITADTSTDTAYMELSSLRSEDTAVYYCATSGYYGNSGFAYWGQGTLVTVSS VL: DIVMTQTPLSLPVTPGEPASISCKSSQSLLSSGNQKNYLTWYLQKPGQSPQLLIYWASTRESGVPDRFSGSGSGTDFTLKISRVEAEDVGVYYCQNDYTYPLTFGQGTKLEIK |  |
| 195 | 82.5 |  | 0.49 | 4.4e-05 | 90000 | M46 (antibody, V domains shown, complete MAb; FR4 is its own entry; also called H20/L4) VH: QVQLVQSGAEVKKPGASVKVSCKASGYTFITYWIEWVRQAPGQGLEWMGDILPGSGSTNYNENFKGRVTMTTDTSTSTAYMELRSLRSDDTAVYYCARSGYYGNSGFAYWGQGTLVTVSS VL: DIVMTQSPLSLPVTPGEPASISCKSSQSLLSSGNQKNYLTWYLQKPGQSPQLLIYWASTRESGVPDRFSGSGSGTDFTLKISRVEAEDVGVYYCQNDYTYPLTFGQGTKLEIK |  |
| 207 | 89.8 |  | 1.6 | 0.000103 | 64300 | M68 (antibody, V domains shown, complete MAb; FR4 is its own entry; also called H23/L5) VH: QVQLVQSGAEVKKPGSSVKVSCKASGYTFITYWIEWVRQAPGQGLEWMGDILPGSGSTNYAQKFQGRVTITADESTSTAYMELSSLRSEDTAVYYCARSGYYGNSGFAYWGQGTLVTVSS VL: DIVMTQTPLSLSVTPGQPASISCKSSQSLLSSGNQKNYLTWYLQKPGQPPQLLIYWASTRESGVPDRFSGSGSGTDFTLKISRVEAEDVGVYYCQNDYTYPLTFGQGTKLEIK |  |
| 202 | 86 |  | 1.02 | 8.2e-05 | 80400 | M42 (antibody, V domains shown, complete MAb; FR4 is its own entry; also called H19/L7) VH: QVQLVQSGAEVKKPGSSVKVSCKASGYTFITYWIEWVRQAPGQGLEWMGDILPGSGSTNYNENFKGRVTITADESTSTAYMELSSLRSEDTAVYYCARSGYYGNSGFAYWGQGTLVTVSS VL: DIVMTQTPLSSPVTLGQPASISCKSSQSLLSSGNQKNYLTWLQQRPGQPPRLLIYWASTRESGVPDRFSGSGAGTDFTLKISRVEAEDVGVYYCQNDYTYPLTFGQGTKLEIK |  |
|  |  |  |  |  |  | M53 (antibody, V domains shown, complete MAb; FR4 is its own entry; also called H21/L4) VH: EVQLVQSGAEVKKPGATVKISCKVSGYTFITYWIEWVQQAPGKGLEWMGDILPGSGSTNYNENFKGRVTITADTSTDTAYMELSSLRSEDTAVYYCATSGYYGNSGFAYWGQGTLVTVSS VL: DIVMTQSPLSLPVTPGEPASISCKSSQSLLSSGNQKNYLTWYLQKPGQSPQLLIYWASTRESGVPDRFSGSGSGTDFTLKISRVEAEDVGVYYCQNDYTYPLTFGQGTKLEIK | binding result [8]: no binding (tested: 50 ng/ml) |
| 186 | 79.1 |  | 1.13 | 9.3e-05 | 82600 | M26 (antibody, V domains shown, complete MAb; FR4 is its own entry; also called H17/L5) VH: QVQLVQSGAEVKKPGASVKVSCKASGYTFITYWIEWVRQAPGQRLEWMGDILPGSGSTNYNENFKGRVTITRDTSASTAYMELSSLRSEDTAVYYCARSGYYGNSGFAYWGQGTLVTVSS VL: DIVMTQTPLSLSVTPGQPASISCKSSQSLLSSGNQKNYLTWYLQKPGQPPQLLIYWASTRESGVPDRFSGSGSGTDFTLKISRVEAEDVGVYYCQNDYTYPLTFGQGTKLEIK |  |
| 196 | 71.2 |  | 0.54 | 3.7e-05 | 69000 | M37 (antibody, V domains shown, complete MAb; FR4 is its own entry; also called H19/L2) VH: QVQLVQSGAEVKKPGSSVKVSCKASGYTFITYWIEWVRQAPGQGLEWMGDILPGSGSTNYNENFKGRVTITADESTSTAYMELSSLRSEDTAVYYCARSGYYGNSGFAYWGQGTLVTVSS VL: DIVMTQSPDSLAVSLGERATINCKSSQSLLSSGNQKNYLTWYQQKPGQPPKLLIYWASTRESGVPDRFSGSGSGTDFTLTISSLQAEDVAVYYCQNDYTYPLTFGQGTKLEIK |  |
|  |  | binds |  |  |  | M72 (antibody, V domains shown, complete MAb; FR4 is its own entry; also called H24/L2) VH: EVQLVQSGAEVKKPGATVKISCKVSGYTFITYWIEWVQQAPGKGLEWMGDILPGSGSTNYAEKFQGRVTITADTSTDTAYMELSSLRSEDTAVYYCATSGYYGNSGFAYWGQGTLVTVSS VL: DIVMTQSPDSLAVSLGERATINCKSSQSLLSSGNQKNYLTWYQQKPGQPPKLLIYWASTRESGVPDRFSGSGSGTDFTLTISSLQAEDVAVYYCQNDYTYPLTFGQGTKLEIK |  |
| 191 | 93.9 |  |  |  |  | murine antibody 10H10 (antibody, V domains shown) VH: QVHLQQSGAELMKPGASVKISCKASGYTFITYWIEWVKQRPGHGLEWIGDILPGSGSTNYNENFKGKATFTADSSSNTAYMQLSSLTSEDSAVYYCARSGYYGNSGFAYWGQGTLVTVSA VL: DIVMTQSPSSLTVTAGEKVTMSCKSSQSLLSSGNQKNYLTWYQQIPGQPPKLLIYWASTRESGVPDRFTGSGSGTDFTLTINSVQAEDLAVYYCQNDYTYPLTFGAGTKLELK |  |
